Measurements as given in patent publication US20230192789A1, “STRUCTURALLY-STABILIZED AND HDMX-SELECTIVE P53 PEPTIDES AND USES THEREOF” (Dana-Farber Cancer Institute, Inc., priority 2020, published 2023).
Entries after “also recorded” stand apart in the source; their conditions may differ. Bridges are numbered along the chain shown (N, C = ends). Where no end group is shown, it is not given here. [ ]: non-standard residue; d: D form. The star is where a group is joined. Biotin = O=C1N[C@H]2[C@H](CS[C@H]2CCCCC(=O)*)N1; R8 = C=CCCCCCC[C@@](C)(N)C(=O)O; S5 = C=CCCC[C@](C)(N)C(=O)O

Experiments:
OCI-AML2 cells = assay: LDH release assay, OCI-AML2; assay type: cell-based; conditions: OCI-AML2, 90 minutes after peptide treatment, highest dosing level
Description: (§1) LDH release assay: To assess the release of lactate dehydrogenase (LDH) upon treatment with a structurally-stabilized peptide described herein, an LDH release assay can be used. Cultured cells, including, e.g., cancer cells and HUVEC cells, are plated in 96-well format (2x10^4 cells per well; including overnight incubation for adherent cells) and then treated with serial dilutions of structurally-stabilized peptides in a final volume of 100 µL and incubated at 37° C. for the indicated time period (e.g., 90 minutes). The plates are spun down at 1500 rpm for 5 minutes at 4° C., and 80 µL of cell culture media is transferred to a clear plate (Corning), incubated with 80 µL of LDH reagent (Roche) for 15 minutes while shaking, and absorbance is measured at 490 nm on a microplate reader (SpectraMax M5 Microplate Reader, Molecular Devices).
(§2) LDHRelease Assay: OCI-AML2 cells (1 × 10^4 cells/well) were plated in 96-well plates and treated with the indicated peptides or vehicle (0.2% DMSO). After 1.5 hours incubation at 37° C., 100 µl of cell medium was transferred to a 96-well clear plate and incubated with 100 µl of LDH reagent (Roche) for 25 minutes while shaking, and absorbance at 490 nm measured on a microplate reader (SpectraMax M5 Microplate Reader, Molecular Devices).

EOL-1 cells = assay: LDH release assay, EOL-1; assay type: cell-based; conditions: EOL-1, 90 minutes after peptide treatment, highest dosing level
Description: as §1, §2

[1] = target: T1, recombinant HDMX (amino acids 1-490 of SEQ ID NO:104) (Homo sapiens, UniProt O15151); assay: Competitive streptavidin pull-down of biotinylated peptides with 1:1 recombinant HDM2/HDMX mixture, HDMX western; assay type: binding; conditions: biotinylated stapled peptide, 1:1 mixture of recombinant HDM2 and HDMX
T1 construct: thioredoxin (N, cleaved yes); S tag (N, cleaved yes); hexahistidine (N, cleaved yes); made in house; host or cells: E. coli (inferred: pET32-LIC vector, handled as described for HDM2 in BL21(DE3))
T1 sequence (O15151 1-490): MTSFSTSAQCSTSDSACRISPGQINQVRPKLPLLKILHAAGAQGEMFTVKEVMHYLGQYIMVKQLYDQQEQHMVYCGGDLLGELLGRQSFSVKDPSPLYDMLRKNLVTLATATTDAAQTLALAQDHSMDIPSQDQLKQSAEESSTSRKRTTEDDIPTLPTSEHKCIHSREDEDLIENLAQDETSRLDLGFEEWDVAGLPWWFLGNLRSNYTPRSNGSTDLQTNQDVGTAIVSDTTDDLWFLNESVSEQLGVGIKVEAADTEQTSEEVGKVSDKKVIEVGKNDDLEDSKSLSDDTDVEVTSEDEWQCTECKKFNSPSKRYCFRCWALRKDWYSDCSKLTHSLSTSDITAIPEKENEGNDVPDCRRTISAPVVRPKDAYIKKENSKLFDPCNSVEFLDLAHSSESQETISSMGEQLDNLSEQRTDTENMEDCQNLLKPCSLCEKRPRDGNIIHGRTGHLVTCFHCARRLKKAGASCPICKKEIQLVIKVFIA

[2] = target: T2, recombinant HDM2 (amino acids 17-125 of SEQ ID NO:103) (Homo sapiens, UniProt Q00987); assay: Competitive streptavidin pull-down of biotinylated peptides with 1:1 recombinant HDM2/HDMX mixture, HDM2 western; assay type: binding; conditions: biotinylated stapled peptide, 1:1 mixture of recombinant HDM2 and HDMX
T2 construct: hexahistidine (N); thrombin cleavage site (N); made in house; host or cells: BL21(DE3) E. coli
Description: For these studies, biotinylated peptides were incubated with a 1:1 mixture of recombinant HDM2 (amino acids 17-125 of SEQ ID NO: 103) and HDMX (amino acids 1-490 of SEQ ID NO: 104), followed by streptavidin pull-down and HDM2 and HDMX Western analyses. […] .

native HDMX = target: T3, native HDMX (Homo sapiens, UniProt O15151); assay: Streptavidin pull-down from cancer cell lysates, HDMX western; assay type: binding
T3 construct: high fidelity selectivity for native HDMX from cells; endogenous in cells; host or cells: EOL-1 and OCI-AML2 lysates (endogenous); SJSA-X lysates (cells engineered to express HDMX)
T3 sequence (O15151 1-490): T1 sequence (O15151 1-490)
Description: (§3) In order to determine if the insights gleaned from the biochemical and structural analyses (Examples 1 and 2, above) informed the development of a stapled p53 peptide with high fidelity selectivity for native HDMX from cells, binding assays were performed using cellular lysates from both hematologic (FIG. 16A) and solid (FIG. 16B) cancers.
(§4) Streptavidin Pull-Down - Cell Lysates: Cultured cells were trypsinized, washed once with cold PBS, and lysed on ice for 30 minutes in lysis buffer (0.5% NP-40, 150 mM NaCl, 50 mM Tris pH 7.4). Protein concentration of the isolated supernatant was determined by Bradford reagent. Lysate samples (2 mg) were incubated with vehicle (0.6% DMSO) or biotinylated peptides (15 nmole) overnight in lysis buffer at 4° C. […] Bead-bound proteins were eluted by addition of 50 µl 2x LDS supplemented with DTT and boiling for 10 minutes. Eluted proteins were then subjected to electrophoresis and western blotting using HDM2 (IF2, EMD Millipore, 1:200) and MDM4 (A300-287A; Bethyl Laboratories, 1:1000) antibodies.

native HDM2 = target: T4, native HDM2 (Homo sapiens, UniProt Q00987); assay: Streptavidin pull-down from cancer cell lysates, HDM2 western; assay type: binding
T4 construct: in the context of the native proteins from cancer cell lysates; endogenous in cells; host or cells: EOL-1, OCI-AML2, SJSA-X cell lysates
Description: as §3, §4

[3] = test system: wild-type, Y99F, and Y99A HDMX (full-length); assay: Streptavidin pull-down with wild-type, Y99F and Y99A HDMX proteins; conditions: biotinylated peptide, full-length HDMX proteins incubated individually, HDMX western
[4] = target: T5, recombinant HDM2 (amino acids 17-125 of SEQ ID NO:103) (human, UniProt Q00987 17-125); assay: isothermal titration calorimetry, peptide titrated into HDM2
T5 construct: also called MDM2; not shown: thrombin cleavage site (pET28a vector)

[5] = target: T5, recombinant HDM2 (amino acids 17-125 of …); assay: fluorescence polarization, FITC-labelled peptide titrated with HDM2
[6] = target: T5, recombinant HDM2 (amino acids 17-125 of …); assay: isothermal titration calorimetry, peptide titrated into HDM2; remark: listed apart in the source
[7] = EOL-1, OCI-AML2, and SJSA-X cancer cell lysates
[8] = EOL-1 and OCI-AML2 leukemia cell lysates, biotinylated peptide
[9] = SJSA-X osteosarcoma cell lysates, biotinylated peptide

Molecule: CC(=O)N[C@@H](CC(C)C)C(=O)N[C@H](C(=O)N[C@@H](Cc1ccccc1)C(=O)N[C@]1(C)CCCCCCC=CCCC[C@@](C)(C(=O)N[C@@H](CO)C(=O)N[C@@H](C)C(=O)N[C@@H](C)C(N)=O)NC(=O)[C@H](CCC(=O)O)NC(=O)[C@H](CCC(N)=O)NC(=O)[C@H](C)NC(=O)[C@H](Cc2c[nH]c3ccccc23)NC(=O)[C@H](Cc2ccc(O)cc2)NC(=O)[C@H](CCC(=O)O)NC1=O)[C@@H](C)O [ATSP-7041 B26E, LTF8EYWAQEXSAA]
- non-specific membrane disruption (LDH release) (OCI-AML2 cells): no non-specific membrane disruptive activity
- non-specific membrane disruption (LDH release) (EOL-1 cells): no non-specific membrane disruptive activity

Molecule: ATSP-7041 B26A (Biotin-LTF[R8]EYWAQA[S5]SAA-NH2; staple 4-11; SMILES CC(C)C[C@H](NC(=O)CCCC[C@@H]1SC[C@@H]2NC(=O)N[C@@H]21)C(=O)N[C@H](C(=O)N[C@@H](Cc1ccccc1)C(=O)N[C@]1(C)CCCCCCC=CCCC[C@@](C)(C(=O)N[C@@H](CO)C(=O)N[C@@H](C)C(=O)N[C@@H](C)C(N)=O)NC(=O)[C@H](C)NC(=O)[C@H](CCC(N)=O)NC(=O)[C@H](C)NC(=O)[C@H](Cc2c[nH]c3ccccc23)NC(=O)[C@H](Cc2ccc(O)cc2)NC(=O)[C@H](CCC(=O)O)NC1=O)[C@@H](C)O)
- HDMX interaction [1]: engage HDMX with greatest affinity
- HDMX versus HDM2 binding selectivity [1]: HDMX selectivity over HDM2; also recorded: most HDMX-specific
- HDM2 interaction [2]: essentially abrogate HDM2 interaction

Molecule: ATSP-7041 B26I (Biotin-LTF[R8]EYWAQI[S5]SAA-NH2; staple 4-11; SMILES CC[C@H](C)[C@@H]1NC(=O)[C@H](CCC(N)=O)NC(=O)[C@H](C)NC(=O)[C@H](Cc2c[nH]c3ccccc23)NC(=O)[C@H](Cc2ccc(O)cc2)NC(=O)[C@H](CCC(=O)O)NC(=O)[C@](C)(NC(=O)[C@H](Cc2ccccc2)NC(=O)[C@@H](NC(=O)[C@H](CC(C)C)NC(=O)CCCC[C@@H]2SC[C@@H]3NC(=O)N[C@@H]32)[C@@H](C)O)CCCCCCC=CCCC[C@@](C)(C(=O)N[C@@H](CO)C(=O)N[C@@H](C)C(=O)N[C@@H](C)C(N)=O)NC1=O)
- HDMX versus HDM2 binding selectivity [1]: dual HDM2/HDXM-targeting activity
- HDMX versus HDM2 binding selectivity ([1]; listed as SEQ ID NO:63): dual-selectivity to HDMX and HDM2
- HDM2 interaction [2]: restored HDM2 binding and bind

Molecule: ATSP-7041 B26L
- HDMX versus HDM2 binding selectivity [1]: dual HDM2/HDXM-targeting activity
- HDMX versus HDM2 binding selectivity ([1]; listed as SEQ ID NO:65): dual-selectivity to HDMX and HDM2
- HDM2 interaction [2]: restored HDM2 binding and bind

Molecule: ATSP-7041 B26R (Biotin-LTF[R8]EYWAQR[S5]SAA-NH2; staple 4-11; SMILES CC(C)C[C@H](NC(=O)CCCC[C@@H]1SC[C@@H]2NC(=O)N[C@@H]21)C(=O)N[C@H](C(=O)N[C@@H](Cc1ccccc1)C(=O)N[C@]1(C)CCCCCCC=CCCC[C@@](C)(C(=O)N[C@@H](CO)C(=O)N[C@@H](C)C(=O)N[C@@H](C)C(N)=O)NC(=O)[C@H](CCCNC(=N)N)NC(=O)[C@H](CCC(N)=O)NC(=O)[C@H](C)NC(=O)[C@H](Cc2c[nH]c3ccccc23)NC(=O)[C@H](Cc2ccc(O)cc2)NC(=O)[C@H](CCC(=O)O)NC1=O)[C@@H](C)O)
- HDMX interaction [1]: engage HDMX with greatest affinity
- HDMX versus HDM2 binding selectivity [1]: HDMX selectivity over HDM2; also recorded: most HDMX-specific
- HDM2 interaction [2]: essentially abrogate HDM2 interaction

Molecule: QSQQTF8NLWRLEXQN (QSQQTF[R8]NLWRLE[S5]QN; staple 7-14) [SAH-p53-8 L26E]
- HDMX interaction [1]: robust HDMX-binding activity
- HDMX versus HDM2 binding selectivity [1]: exquisite binding selectivity for HDMX; also recorded: HDMX-selective
- native HDMX binding (native HDMX; [7]): preserved
- native HDMX binding (native HDMX; [8]): selective interaction with HDMX
- native HDMX binding (native HDMX; [9]): predominant HDMX interaction
- native HDM2 binding (native HDM2; [7]): markedly impaired or abrogated
- native HDM2 binding (native HDM2; [8]): abrogates HDM2 binding
- native HDM2 binding (native HDM2; [9]): impairs HDM2 interaction
- interaction with Y99F and Y99A HDMX [3]: significantly impaired; also recorded: markedly impair interaction

Molecule: QSQQTF8NLWRLLXQN [SAH-p53-8, reference compound]
- HDMX versus HDM2 binding selectivity [1]: dual-targeting HDM2/HDMX
- native HDMX binding (native HDMX; [7]): effectively engaged
- native HDMX binding (native HDMX; [8]): binds
- native HDMX binding (native HDMX; [9]): binds
- native HDM2 binding (native HDM2; [7]): effectively engaged
- native HDM2 binding (native HDM2; [8]): binds
- native HDM2 binding (native HDM2; [9]): binds
- interaction with Y99F and Y99A HDMX [3]: retained interaction; also recorded: effectively bind

Molecule: SAH-p53-4 K24E/E28A: Formula (I) stapled peptide: [Xaa]w LSQETF, [Xaa]x DLWELL, [Xaa]y AN (LSQETF[R8]DLWELL[S5]AN-NH2; staple 7-14; not fully specified (N-terminus))
- HDMX interaction [1]: HDMX binding
- HDMX versus HDM2 binding selectivity [1]: restored dual HDM2/HDMX interaction
- HDMX versus HDM2 binding selectivity ([1]; listed as SEQ ID NO:47): selectivity to HDM2
- HDM2 interaction [2]: especially robust HDM2 interaction

B1: SAH-p53-4 (peptide)
peptide: LSQETF[R8]DLWKLL[S5]EN
modifications: staple 7-14; also: N-terminus biotin, acetyl or FITC depending on assay
notes: One entry for the peptide; also called wild-type SAH-p53-4; LSQETF8DLWKLLXEN
- Kd [4]: 20.4 nM
- Kd [5]: 12 nM

Molecule: LSQETF[R8]DLWKLE[S5]EN (staple 7-14; also: N-terminus biotin, acetyl or FITC depending on assay) [SAH-p53-4 L26E]
- Kd [6]: 256 nM
- Kd [5]: 149 nM
